Assays:
human UBR4 (human) = human UBR4 (human) (UniProt Q5T4S7); assay: mass photometry; isolated human UBR4/KCMF1/CALM1 complex, co-expressed in insect cells and purified via a tag on UBR4
[1] = target: C. elegans UBR4 (C. elegans); assay: not stated; molecular weight of the purified C. elegans UBR4 complex (Fig. S13A)

Sequence of human UBR4, Q5T4S7 1-5183 (enzyme) (Q5T4S7 whole entry): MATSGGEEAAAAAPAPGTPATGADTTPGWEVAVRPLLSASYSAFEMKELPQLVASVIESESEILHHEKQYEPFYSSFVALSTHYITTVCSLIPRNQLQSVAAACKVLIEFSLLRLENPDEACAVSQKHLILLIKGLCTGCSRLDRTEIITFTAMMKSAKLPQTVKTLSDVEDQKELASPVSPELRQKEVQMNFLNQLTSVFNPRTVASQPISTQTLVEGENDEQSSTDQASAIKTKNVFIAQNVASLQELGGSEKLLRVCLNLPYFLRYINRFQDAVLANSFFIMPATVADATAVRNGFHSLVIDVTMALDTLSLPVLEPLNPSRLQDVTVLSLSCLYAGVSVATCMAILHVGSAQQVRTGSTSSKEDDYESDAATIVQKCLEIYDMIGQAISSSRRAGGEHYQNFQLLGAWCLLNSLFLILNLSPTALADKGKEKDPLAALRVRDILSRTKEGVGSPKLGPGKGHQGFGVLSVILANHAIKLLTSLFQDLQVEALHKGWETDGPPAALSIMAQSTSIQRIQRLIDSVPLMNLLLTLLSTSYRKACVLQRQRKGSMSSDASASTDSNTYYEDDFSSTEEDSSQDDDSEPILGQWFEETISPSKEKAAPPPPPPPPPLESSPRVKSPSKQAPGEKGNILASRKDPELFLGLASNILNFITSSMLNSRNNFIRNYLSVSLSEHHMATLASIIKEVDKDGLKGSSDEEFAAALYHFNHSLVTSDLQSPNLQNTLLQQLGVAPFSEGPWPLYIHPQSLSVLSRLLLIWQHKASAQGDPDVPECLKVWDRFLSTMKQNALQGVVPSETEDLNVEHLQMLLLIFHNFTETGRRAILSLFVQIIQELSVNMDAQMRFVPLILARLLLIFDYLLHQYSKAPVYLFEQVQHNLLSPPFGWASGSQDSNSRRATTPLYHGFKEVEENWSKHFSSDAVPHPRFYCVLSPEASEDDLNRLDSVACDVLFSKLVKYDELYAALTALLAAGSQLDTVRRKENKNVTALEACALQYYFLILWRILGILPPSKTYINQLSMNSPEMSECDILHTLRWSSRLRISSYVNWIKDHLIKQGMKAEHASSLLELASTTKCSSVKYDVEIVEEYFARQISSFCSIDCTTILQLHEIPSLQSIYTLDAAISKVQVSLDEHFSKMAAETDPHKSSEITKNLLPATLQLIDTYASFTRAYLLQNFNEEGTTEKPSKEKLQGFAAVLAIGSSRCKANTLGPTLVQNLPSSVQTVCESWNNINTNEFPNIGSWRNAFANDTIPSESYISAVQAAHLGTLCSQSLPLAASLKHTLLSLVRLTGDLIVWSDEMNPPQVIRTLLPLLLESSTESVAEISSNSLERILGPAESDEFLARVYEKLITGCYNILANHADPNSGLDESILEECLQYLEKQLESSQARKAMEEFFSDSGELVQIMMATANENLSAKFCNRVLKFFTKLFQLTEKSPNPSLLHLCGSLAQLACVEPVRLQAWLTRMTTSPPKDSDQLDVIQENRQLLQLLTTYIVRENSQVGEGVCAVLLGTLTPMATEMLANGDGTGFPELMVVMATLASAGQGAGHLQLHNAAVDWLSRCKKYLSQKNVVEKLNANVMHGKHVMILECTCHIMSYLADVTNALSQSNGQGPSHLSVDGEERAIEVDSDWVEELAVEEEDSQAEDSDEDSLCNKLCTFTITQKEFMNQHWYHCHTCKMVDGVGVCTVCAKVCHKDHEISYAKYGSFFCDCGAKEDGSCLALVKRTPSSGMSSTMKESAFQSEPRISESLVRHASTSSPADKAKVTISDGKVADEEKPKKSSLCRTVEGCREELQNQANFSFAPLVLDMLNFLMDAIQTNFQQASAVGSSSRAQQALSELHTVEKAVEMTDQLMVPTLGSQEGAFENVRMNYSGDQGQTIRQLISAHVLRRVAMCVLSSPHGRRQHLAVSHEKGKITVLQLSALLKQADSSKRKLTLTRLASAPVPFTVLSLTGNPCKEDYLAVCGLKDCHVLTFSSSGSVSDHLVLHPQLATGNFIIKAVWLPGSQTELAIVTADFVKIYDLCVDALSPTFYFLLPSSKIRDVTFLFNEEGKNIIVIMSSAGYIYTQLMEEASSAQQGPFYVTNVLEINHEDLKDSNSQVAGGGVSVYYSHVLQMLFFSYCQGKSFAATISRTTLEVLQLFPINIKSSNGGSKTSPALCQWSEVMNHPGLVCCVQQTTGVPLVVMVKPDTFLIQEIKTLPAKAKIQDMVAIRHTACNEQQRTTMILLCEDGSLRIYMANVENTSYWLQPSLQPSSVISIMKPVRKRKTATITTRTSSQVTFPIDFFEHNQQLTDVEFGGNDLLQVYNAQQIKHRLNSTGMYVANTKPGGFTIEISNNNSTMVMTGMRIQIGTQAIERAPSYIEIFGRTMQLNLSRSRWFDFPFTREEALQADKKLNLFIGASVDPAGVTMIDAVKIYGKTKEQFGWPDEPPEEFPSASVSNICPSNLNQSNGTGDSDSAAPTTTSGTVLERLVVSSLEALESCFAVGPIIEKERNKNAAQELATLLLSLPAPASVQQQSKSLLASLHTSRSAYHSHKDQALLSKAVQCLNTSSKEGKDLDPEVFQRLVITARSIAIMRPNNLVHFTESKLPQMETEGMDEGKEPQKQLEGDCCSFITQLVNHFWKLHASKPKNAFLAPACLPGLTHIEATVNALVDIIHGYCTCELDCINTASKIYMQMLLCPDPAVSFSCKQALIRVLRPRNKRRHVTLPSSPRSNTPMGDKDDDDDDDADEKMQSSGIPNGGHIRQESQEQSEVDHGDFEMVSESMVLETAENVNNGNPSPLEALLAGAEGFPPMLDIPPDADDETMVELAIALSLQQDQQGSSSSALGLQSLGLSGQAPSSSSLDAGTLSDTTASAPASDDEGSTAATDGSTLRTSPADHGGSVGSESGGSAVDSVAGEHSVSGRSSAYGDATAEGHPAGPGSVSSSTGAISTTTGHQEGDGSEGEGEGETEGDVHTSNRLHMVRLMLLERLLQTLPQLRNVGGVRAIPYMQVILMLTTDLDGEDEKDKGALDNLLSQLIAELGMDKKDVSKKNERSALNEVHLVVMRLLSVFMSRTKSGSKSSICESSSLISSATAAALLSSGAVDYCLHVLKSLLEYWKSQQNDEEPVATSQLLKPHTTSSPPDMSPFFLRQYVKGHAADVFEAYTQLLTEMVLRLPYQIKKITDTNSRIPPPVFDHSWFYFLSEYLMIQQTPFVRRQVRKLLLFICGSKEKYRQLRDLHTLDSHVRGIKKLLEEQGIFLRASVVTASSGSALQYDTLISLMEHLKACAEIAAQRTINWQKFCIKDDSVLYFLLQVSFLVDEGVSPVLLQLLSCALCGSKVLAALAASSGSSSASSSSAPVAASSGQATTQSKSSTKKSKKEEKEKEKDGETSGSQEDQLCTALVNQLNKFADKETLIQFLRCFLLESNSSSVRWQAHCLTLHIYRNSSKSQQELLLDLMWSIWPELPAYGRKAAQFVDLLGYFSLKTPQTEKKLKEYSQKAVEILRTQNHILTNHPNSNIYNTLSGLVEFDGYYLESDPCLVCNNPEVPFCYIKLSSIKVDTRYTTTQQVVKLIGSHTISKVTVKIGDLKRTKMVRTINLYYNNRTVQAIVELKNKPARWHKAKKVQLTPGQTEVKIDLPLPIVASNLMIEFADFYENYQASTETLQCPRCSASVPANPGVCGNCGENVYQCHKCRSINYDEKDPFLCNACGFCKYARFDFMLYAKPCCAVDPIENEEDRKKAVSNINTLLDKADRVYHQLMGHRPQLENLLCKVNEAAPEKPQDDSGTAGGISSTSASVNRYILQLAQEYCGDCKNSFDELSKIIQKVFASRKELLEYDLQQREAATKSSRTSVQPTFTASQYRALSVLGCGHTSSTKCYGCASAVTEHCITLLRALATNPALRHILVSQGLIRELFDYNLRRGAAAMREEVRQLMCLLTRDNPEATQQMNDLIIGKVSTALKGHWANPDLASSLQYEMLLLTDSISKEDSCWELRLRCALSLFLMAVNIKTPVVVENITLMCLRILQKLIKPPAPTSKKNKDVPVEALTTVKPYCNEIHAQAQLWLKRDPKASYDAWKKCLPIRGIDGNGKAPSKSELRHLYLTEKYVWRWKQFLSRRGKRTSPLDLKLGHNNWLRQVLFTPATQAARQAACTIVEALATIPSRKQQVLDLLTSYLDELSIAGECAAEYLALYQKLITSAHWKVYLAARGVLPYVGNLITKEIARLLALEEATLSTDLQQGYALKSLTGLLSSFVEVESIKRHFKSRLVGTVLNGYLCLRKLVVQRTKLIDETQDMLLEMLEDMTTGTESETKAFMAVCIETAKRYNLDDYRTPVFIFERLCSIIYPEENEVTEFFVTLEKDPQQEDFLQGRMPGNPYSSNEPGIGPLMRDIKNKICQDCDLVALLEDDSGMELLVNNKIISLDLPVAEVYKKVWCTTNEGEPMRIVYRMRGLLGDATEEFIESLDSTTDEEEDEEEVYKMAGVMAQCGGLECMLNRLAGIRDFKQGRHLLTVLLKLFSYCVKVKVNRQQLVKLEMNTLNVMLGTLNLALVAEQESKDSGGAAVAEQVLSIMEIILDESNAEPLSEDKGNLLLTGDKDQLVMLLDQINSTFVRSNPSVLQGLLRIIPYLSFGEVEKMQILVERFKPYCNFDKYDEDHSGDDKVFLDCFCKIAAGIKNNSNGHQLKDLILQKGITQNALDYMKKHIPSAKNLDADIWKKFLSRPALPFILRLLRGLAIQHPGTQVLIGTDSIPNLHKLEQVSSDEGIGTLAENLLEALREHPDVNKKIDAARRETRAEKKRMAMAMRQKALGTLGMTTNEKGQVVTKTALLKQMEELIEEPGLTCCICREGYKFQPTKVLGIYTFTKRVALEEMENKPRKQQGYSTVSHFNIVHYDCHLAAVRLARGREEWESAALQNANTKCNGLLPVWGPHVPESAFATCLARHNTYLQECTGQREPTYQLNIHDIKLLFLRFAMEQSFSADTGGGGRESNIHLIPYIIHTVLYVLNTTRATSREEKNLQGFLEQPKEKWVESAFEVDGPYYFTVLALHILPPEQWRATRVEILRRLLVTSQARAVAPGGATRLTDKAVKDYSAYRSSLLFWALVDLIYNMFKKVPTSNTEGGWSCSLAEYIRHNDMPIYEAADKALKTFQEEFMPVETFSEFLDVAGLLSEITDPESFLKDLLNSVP

stoichiometry N (human UBR4 (human)) | stoichiometry N [1] | Substance
2 |  | human UBR4, Q5T4S7 1-5183 (enzyme)
 | 2 | C. elegans UBR4, A0A0S4XR36 1-4218

Reference: article PMC7618180
